# Columns and labels:
# [1] = biological target: 2F5 (broadly neutralizing human monoclonal antibody to the gp41 MPR); assay: cell-based or functional assay
# [2] = biological target: 2F5 (broadly neutralizing human monoclonal antibody to the gp41 MPR); assay: competition ELISA, peptide serially diluted with 1 ug/ml 2F5 on NE3-captured HBsAg-MPR particles
Molecule,"neutralization activity of 2F5 adsorbed out, SF162.LS virus (TZM-B1 cells, luciferase) [1] [%]","neutralization activity of 2F5 adsorbed out, YU2.5G3 virus (TZM-B1 cells, luciferase) [1] [%]",fold enhancement of 2F5 binding to HBsAg-MPR particle [2] [fold]
HBsAg-MPR particles (HBsAg with the HIV-1 gp41 membrane proximal region at the C-terminus),21,10,–
NEQELLELDKWASLWN [16-mer peptide harboring the 2F5 epitope (…)],–,–,2
